Experimental data: the DeepSol protein solubility set

Experiment: soluble on expression in E. coli; label from the status in PepcDB or PDB records

Sequence | soluble on expression in E. coli
MSLEVVLWDFDGVIFDSMHLKNEGFRALFQKHGNKNQESLKQFEVYHYQSGGISRNEKIQYFYNEILKTPIAQEEVDALALEFGTIIEQKLFDREHLNSEVMAFIDKHYKNHVFHIASAALHSELQVLCEFLGIIKYFKSVEGSPPNKPKIIANIIQKYAYNPGRMLMIGDSVNDYESAQANEVAFLGYNSKVLKNLVGQNGYQGKYLESFKGFDLQNFIKEGHHHHHH | soluble
MAKMRRYPAVAGQFYPEGDALIEMLSSFFKDLGEEGTKRTITAGVAPHAGYVFSGFTASRTYKAIYEDGLPEVFVIFGPNHTGLGSPIALYPEGEWITPMGSIKVDSKFAKEIVKRSGIADLDDLAHKYEHSIEVQLPFIQYIAEKAGVEVKIVPITLGIQDEEVSRSLGRSIFEASTSLGRDTIIIASTDFMHYGSFYGYVPFRGRPEELPNMVRDWDMRIIRRILDFDLDGMFSEIREMNHTMCGPGGVGAGIIYSRLMKAKEAELLHYTTSFEVSRSPDAIVGYASIIMKRLEHHHHHH | not soluble
GNYENINSNPYEAPDLSADGYALGSAMNNLAGCVVSPDVNTAQFTDCLLGGPLGGYFADSNAGFTETISNFNPKDDWSRVFLKSDKIIPTLYSNLTQVKLVSQNTNDPVPYAIAQVIKVAAMHRVTDAFGPIPYSQIGANGEIATPYDSQEVTYNTFFDELNAAIATLNENSNEQLVPTADYIYKGDVKKWIRFANSLKLRLAIRIAYANPVKAQQMAEEAVNPANGGVIESNADNATWNYFETSQNPIYVATRYNQVQTSDHGGVPCLTGGDTHAAADIICYMNGYKDNRREKFFTKSEWAGQDYVGMRRGIVIPELKTTGHKYSGVNIAPTSPLYWMNAAEVAFLRAEGQAVFNFSMGGTAESFYNQGIRLSFEQWGADGVEDYLKDDVNKPTAYTDPAGTNTYQNALSNITIKWNDSADKEEKQERIIVQKWIANWQLGNEAWADFRRTGYPKLIPVKENKSGGVVDSEKGARRMPYPLDEFVSNKANVEYAIANYLHGADNMATDVWWASKK | soluble
MVKSVLCFGDSLTWGSNAETGGRHSHDDLWPSVLQKALGSDVHVIHEGLGGRTTAYDDHTGDCDRNGARLLPTLLHSHAPLDMVIIMLGTNDMKPAIHGSAIVAMKGVERLVKLTRNHVWQVSDWEAPDVLIVAPPQLCETANPFMGAIFRDAIDESAMLASVYRDLADELDCGFFDAGSVARTTPVDGVHLDAENTRAIGRGLEPVVRMMLGL | soluble
MSLIVDREELEYDGSQLRRAFAHERYGIKGRAVVVFRGPMDVRTEYTADAEDVGSPIRGNDVLHLLVDDPTRADPLVAGLLQRLLVVVTKEVIEKELSTDLDRDGDDLLHDGRKLTVSVFKPAGPGSLAHLGINVTTEGVPVPASSLRDLGYRGDPLDLGRRVAVEFVREITDVELDLTKIRWEGHHHHHH | soluble
MGSDKIHHHHHHMARVAINGFGRIGRLVYRIIYERKNPDIEVVAINDLTDTKTLAHLLKYDSVHKKFPGKVEYTENSLIVDGKEIKVFAEPDPSKLPWKDLGVDFVIESTGVFRNREKAELHLQAGAKKVIITAPAKGEDITVVIGCNEDQLKPEHTIISCASCTTNSIAPIVKVLHEKFGIVSGMLTTVHSYTNDQRVLDLPHKDLRRARAAAVNIIPTTTGAAKAVALVVPEVKGKLDGMAIRVPTPDGSITDLTVLVEKETTVEEVNAVMKEATEGRLKGIIGYNDEPIVSSDIIGTTFSGIFDATITNVIGGKLVKVASWYDNEYGYSNRVVDTLELLLKM | not soluble
MGSSHHHHHHSSGLVPRGSHMASGTSKDASGGSSSGKEVLEFYHGYHHSEDEWPVAKTMRDLYDKFAEEHKDSGVEFKPTPVNGDLKDIMNNKVASGEFPDVIDLAGNAVSLAAIEQKLVLDLKPYIDSNKLEKNVGLNYKQNQKDGKIYTVHEQLFTMGLWYNKDIFAKAGAKTPDQWNTWDDFTQAMASIRKQDGVYAFGAGEPSIRLFNTVLGTTENGRKLLDKPLTKEGIESKEFADALKMVMKEIQANGSKNAGGDANAYSKDFQEGKSAVFFNGVWASGEMSKNPSLAPGIYPAGVAISSSGGGITISSKMSEAKQKLALEFLKYMTSDDVQKVIFEKVGANPSNENVNVKELSEKSSEATTKILGQAITQVKNAKAVVPTVSDVWGGDVHTAIINALTESAAENVDVDQKVKSTQDVLKSLIG | soluble
MNTNHYYIRYGCAITLYDNHVSERERLTPKELRFSIEKAVSSFRIQAQEPFSPGSKARFSFVKRKDGNTKNGIFLSPHIVTKDMHAQKVWTKASKFLEIDYLGKDNEREGLLKKDNVSMSNIPISGEYLTFGEKDTGRGSAKISVEEQTYGLITTLTPLKPALQVGKDNFCIIPDIPLNQMVDFIALFDKMQITHLSGEAMLGNIDNKGIPHRPKIFRGNFPNSPKSDRMGAIALLGAIGEFAKHAEFSTLAQKVLDSLKGST | not soluble
MSLNAPKLVIGANGFLGSHVTRQLVADCAPQKGEVRAMVRPAANTRSIDDLPLTRFHGDVFDTATVAEAMAGCDDVYYCVVDTRAWLRDPSPLFRTNVAGLRNVLDVATDASLRRFVFTSSYATVGRRRGHVATEEDRVDTRKVTPYVRSRVAAEDLVLQYAHDAGLPAVAMCVSTTYGGGDWGRTPHGAFIAGAVFGRLPFTMRGIRLEAVGVDDAARALILAAERGRNGERYLISERMMPLQEVVRIAADEAGVPPPRWSISVPVLYALGALGSLRARLTGKDTELSLASVRMMRSEADVDHGKAVRELGWQPRPVEESIREAARFWAAMRTVGKDPAASEGHHHHHH | not soluble
MIKRGFPAVLDENTEILILGSLPSDESIRKQQYYGNPGNDFWRLVGHAIGENLQDMAYEKKLKTLKHNRIGLWDVFKAGSREGSQDSKIGDEEINDFSGLKEMVPKLRLICFNGRKAGEYEPLLRGMGYETKVLPSSSGANRRFSKNRESEWEAVFRHLEHHHHHH | soluble
TVKSGLILQSISNDVYHNLAVEDWIHDHMNLEGKPVLFLWRNSPTVVIGRHQNPWQECNLNLMREEGVKLARRRSGGGTVYHDMGNINLTFFTTKKKYDRMENLKLVVRALKAVHPHLDVQATKRFDLLLDGQFKISGTASKIGRNAAYHHCTLLCGTDGTFLSSLLKSPYQGIRSNATASTPALVKNLMEKDPTLTCEVVINAVATEYATSHQIDNHIHLINPTDETVFPGINSKAIELQTWEWIYGKTPKFSVDTSFTVLHEQSHVEIKVFIDVKNGRIEVCNIEAPDHWLPLEICDQLNSSLIGSKFSPIETTVLTSILHRTYPGDDELHSKWNILCEKIKGIM | soluble
MGSDKIHHHHHHMKKGIQLVALLLTVVMSSCTGGKDKAAVKQEDEKPRVKVADVTARPVDQIQDYTATVEAEVKNNIAPSSPVRIDRILVEVGDRVSKGQKLVQMDAANLTQTKLQLDNQKIEFNRIDELYKVGGASKSEWDAAKMQLDVKQTAYDNLVENTFLLSPINGVITARNYDNGDMYSGGSPVLVVEQITPVKLMINVSETYFTKVKKGEPVDVKLDVYGDELFKGTISLIYPTIDATTRTFQIEIKLDNKDQRVRPGMFARATLNFGTADNVVVPDLAIVKQAGSGDRYVYVYKDGKVSYNKVELGRRMGSEYELKSGVPDNSQVVVAGQARLINGTEVEIEK | not soluble
MTYPDLSRGAGPVAAGPQPTGLADLLERVLDKGLVIAGDIRVNLLDIELLTIKLRLVIASMETAQQAGIDWWTRDPWLKASESELLEENRRLREQLAQADTNGRKRIEGKESHD | not soluble
MTEWTGEERYQRIEDVDTEYFKTLKQQVDQSKFRQQFHIQPETGLLNDPNGLIFYKGKYYVSHQWFPLGAVHGLKYWYNYTSDDLINFKAEGPILNPDTKYDSHGVYSGSAFEYNGHLYYMYTGNHRDNHWQRHASQMIARLKEDGSVEKFPKPVISQQPEGYTSHFRDPKVFKYDEKYYAIIGAQNNDQQGRLLLYNTEDIINWHYLGEINTELDDFGYMWECPDYFNVDNQDVILICPQGIEPKGDQFKNIYQSGYILGKFDIEKLTYEHENFVELDNGFDFYAPQTFLDEKGRRVLIGWMGLPEIEYPTDNEGWAHCLTTPRVLNVENGQLKQRPYPALEKLRHNKETALGYANKFTRKLHPYEGKQYELIIDILDNDATEVYFELRTSKTSSTLIAYNKRENKITLDRSDSGLLPTNVEGTTRSTILDTPLKQLQIFVDTSSIEIFCNDGERVLTSRIFPTEDALGIKTSTESGQVYLQFTKYDLKDEHK | not soluble
STFAYIANSESDNISVIDVTSNKVTATIPVGSNPMGAVISPDGTKVYVANAHSNDVSIIDTATNNVIATVPAGSSPQGVAVSPDGKQVYVTNMASSTLSVIDTTSNTVAGTVKTGKSPLGLALSPDGKKLYVTNNGDKTVSVINTVTKAVINTVSVGRSPKGIAVTPDGTKVYVANFDSMSISVIDTVTNSVIDTVKVEAAPSGIAVNPEGTKAYVTNVDKYFNTVSMIDTGTNKITARIPVGPDPAGIAVTPDGKKVYVALSFCNTVSVIDTATNTITATMAVGKNPYASGQFIGSIPVQPVYPSADFKSNITSGYIFLSEPVQFTDLSKDATEWKWDFGDGSSSKKQNPTHTYSETGIYTVRLTVSNSNGTDSQISTVNVVLKGSPTPS | soluble
MEASKDISRLIEIMEALRQPETGCPWDVVQTFETIKPYTIEEAYEVADAIERKDMDDLCDELGDLLLQVVFHARIAEERGEFTFGDVVHAVTSKMIRRHPHVFDVSDADTPDSVKLQWDQIKAEEKRERAERRARRGITEDFKAGFLGGVQRSQPALTEALKLQEQAARVGFDWSDPAPILDKIEEEIAELREALAEGKPEKVSDELGDLIFALVNIGRHVKADPEDALRGTNTKFRRRFNHIETSLSDNGETLKEASLERMEDLWQAAKRIERSLDTVSS | not soluble
MGSDKIHHHHHHMIVNQANLQGIYKSFNTIFNQAFDAAPSQWPLVAMQVPSTGRSVDYKWLGDFPMMREWLGDRVLKDLSAFKYEITNKDYESTIEVDRNDIDDDQIGVYTPMIQGLAQAAKVHPDILVFALLKAGFDTGCFDGQYFFDSDHSVNGASVSNTGGGDGTPWYLLDLSRPIKPIVLQIRKRPQFVAMDKPDDENVFMRKKFRYGVDDRKNVGYGLWQLAYGSKQTLDATNYAAARAAMMAFTNDEGVPLGITPTHLVVPPTLESNGRTVVEAQFDANGASNVWYNTAKLVVVPWLA | not soluble
MKSKFEASIDNLKEIEMNAYAYELIREIVLPDMLGQDYSSMMYWAGKHLARKFPLESWEEFPAFFEEAGWGTLTNVSAKKQELEFELEGPIISNRLKHQKEPCFQLEAGFIAEQIQLMNDQIAESYEQVKKRADKVVLTVKWDMKDPVMAGDPLEHHHHHH | soluble
MELRIFFDGNCPLCSAEMRQLKARDPDDHIELVDLNAENFSSRFSYIDKDYANTILHGETASGQVLLGLDVTCKAWALTGTRPWIQVLRLPLIKPLADWCYLRFAKHRYRISYLLTGKARCDSQCQLPKLEHHHHHH | soluble
VLDVDTARRRIVDLTDAVRAFCTAHDDGLCNVFVPHATAGVAIIETGAGSDEDLVDTLVRLLPRDDRYRHAHGSYGHGADHLLPAFVAPSVTVPVSGGQPLLGTWQSIVLVDLNQDNPRRSVRLSFVEG | not soluble
MPGHRITLTGEKQTLLITLYAKALDSRLDDSILHDRFAEEAVRQIDFDFSRVALGKGNERALAMRSHYFDQACREFLGRHPEGQVLNLGCGLDSRIYRVDPPAELPWFDLDYPEVMDLRERLYPPRAGAYRALRHSVDDDGWLQGVPRERPALVLAEGLMPYLRESQVRRLVERLVDHLGSGELLFDGYGRLGIMLLRLYPPLRETGAQVHWSIDDPRELERWHPALRFIEEVTDYDPQDVAKLPQSSRLMLPIYNGFAFLRRMGRLIRYRWPRV | not soluble
